The text below walks through data of the supplement of paper PMC9170038.

This data set relates to MS2 coat protein. Put plainly: apparent KD of MS2 coat protein; designed switch direction (-1 OFF switch, 1 ON switch): -1; higher = weaker reporter binding. The method, boiled down: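 For each design, the apparent KD is the median over clusters of curves fitted to normalised cluster fluorescence. Clusters held RNA switches with common flanks, transcribed on Illumina chips by stalled E. coli RNA polymerase. These were titrated with SNAP-549-labelled MS2 coat protein, doubling from 0.7 or 1.5 nM to 3 µM, without input, with 200 uM small-molecule ligand, or with an oligonucleotide input.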

Where [1] appears, read: Eterna round: R95, input ligand: FMN 200 uM.
Setting [2] is: Eterna round: R95, input ligand: microRNA oligo, concentration not stated.
The mark [3] stands for this setting: Eterna round: R95, input ligand: none.
The mark [4] stands for this setting: input ligand: microRNA oligo, concentration not stated.

“ACUUACUGAGGAUAUACUUAGAUUUACAUGAGGAUCACCCAUGUUCCUCUAUGUAUAUAUGUAGAAGGCAGAAGAA [JL-ex5-4.35 Malcolm mod] (Eterna round: R97, puzzle: Exclusion 5)”: the “apparent KD of MS2 coat protein” value (input ligand: FMN 200 uM) was determined as 120 nM and the “apparent KD of MS2 coat protein” value (input ligand: none) came to 23.7 nM.

For “ACUUGUGUUGAGGAUAUGCGCCGGCUCGCUGGCGCAGAAGGCGGCACAUGAGGAUCACCCAUGUCAGUUCGCGC [salish99_ex6_r004_001] (Eterna round: R97, puzzle: Exclusion 6)”, the “apparent KD of MS2 coat protein” value is, setting by setting: (input ligand: FMN 200 uM) 138 nM; (input ligand: none) 16.8 nM.

As for “AGAAAGCAAGGAUAUACAAGGAAACGACGGAAAGUAGAGAGACAUGAGGAUCACCCAUGUAGAAGGUGCGAGAG [JR_Exclu2_Sub033] (puzzle: Exclusion 2)”, the “apparent KD of MS2 coat protein” value runs as follows: under setting [1], 32.1 nM; under setting [2], 24.5 nM; under setting [3], 29.1 nM.

Regarding “AGAAAGGCAGGAUAUCGAUAAUAAAACAUGAGGAUCACCCAUGUGAGGCCGCGUGUAACUCGAGAAGGGCUACACG [Biarquma] (puzzle: Exclusion 5)”, the “apparent KD of MS2 coat protein” value worked out at 16.1 nM under setting [1], 16.6 nM under setting [2] and 15.4 nM under setting [3].

Consider “AGAAAUGCCCAUGACCGCAAGCUUUUUGCUUGUCUUACCACAUGAGGAUCACCCAUGUGACAUGGGCUCCUGAUAAU [Onlaleti] (puzzle: Sensor v3, turn-off variant 2)”, for which the “apparent KD of MS2 coat protein” value reads like this: under setting [1], 14.7 nM; under setting [2], 11.4 nM; under setting [3], 12.3 nM.

On to “AGAAAUGCCCAUGGCCACAAGCUUUUUGCUUGCCUUACCACAUGAGGAUCACCCAUGUGACAUGGGCUCCUUAUAAU [Teoredale] (puzzle: Sensor v3, turn-off variant 2)”, for which the “apparent KD of MS2 coat protein” value under setting [1] was determined as 15.3 nM, the “apparent KD of MS2 coat protein” value under setting [2] was determined as 13.1 nM and the “apparent KD of MS2 coat protein” value under setting [3] stood at 14 nM.

As for “AGAAAUGCCCAUGGCCGCAAGCUUCUUGCUUGUCUUACCACAUGAGGAUCACCCAUGUGACAUGGGCUCCUUAUAAU [Xeceenqu] (puzzle: Sensor v3, turn-off variant 2)”, the “apparent KD of MS2 coat protein” value under setting [1] is 12.5 nM, the “apparent KD of MS2 coat protein” value under setting [2] worked out at 9.59 nM and the “apparent KD of MS2 coat protein” value under setting [3] amounted to 11.3 nM.

Consider “AGAAAUUCAAGAGGAUAUCACAUGAGGAUCACCCAUGUAUAGCGCGCUACGCUAGUCCUCGUAUUUGAGAAGGUUUGAUAAAAG [Mat - Exclusion NG 2 - Mod of JL - D77] (Eterna round: R96, puzzle: Exclusion NG 2)”, for which the “apparent KD of MS2 coat protein” value by setting is: (input ligand: FMN 200 uM) 14.3 nM; under setting [4], 14.3 nM; (input ligand: none) 15.7 nM.

As for “AGAACACAUGAGGAUCACCCAUGUCAGGAUAUCGACUGAACAGCUUCGGCUGUUCAGUCGAGAAGGGACAAUUA [Brourdxlusion 6 - Jieux - Exclusion 1] (Eterna round: R97, puzzle: Exclusion 1)”, the “apparent KD of MS2 coat protein” value reads like this: (input ligand: FMN 200 uM) 120 nM; (input ligand: none) 55.8 nM.

For “AGAAUGGUACAGGAUAUAGCAUCUAACUGCAUGCUAGAAGGGUAUACAUGAGGAUCACCCAUGUAGUCGUGGAU [Eternabot (L1) Solution 13] (Eterna round: R97, puzzle: Exclusion 6)”, the “apparent KD of MS2 coat protein” value amounted to 55.2 nM (input ligand: FMN 200 uM) and 37.4 nM (input ligand: none).

As for “AGAAUUGCCCAUGGCCGCAAGCUUUUUGCUUGUCUUACCACAUGAGGAUCACCCAUGUGACAUGGGCUCCUUAUAAU [Anargees] (puzzle: Sensor v3, turn-off variant 2)”, the “apparent KD of MS2 coat protein” value runs as follows: under setting [1], 13.9 nM; under setting [2], 9.32 nM; under setting [3], 11.8 nM.

On to “AGACAGUCAGGAUAUACAUGAGGAUCACCCAUGUUGAGAUGAGAAAGGGCAGGAAUAGGUAGAAGGGACGAGAG [JR_Exclu3_Sub037] (puzzle: Exclusion 3)”, for which the “apparent KD of MS2 coat protein” value is, setting by setting: under setting [1], 30.5 nM; under setting [2], 20.1 nM; under setting [3], 26.2 nM.

Consider “AGACAGUCAGGAUAUACAUGAGGAUCACCCAUGUUGAGAUGUGAAAGGGCGGGAGUAGGUAGAAGGGACGAGAG [JR_Exclu3_Sub039] (puzzle: Exclusion 3)”, for which the “apparent KD of MS2 coat protein” value is 27.3 nM under setting [1], 26.7 nM under setting [2] and 37.5 nM under setting [3].

Take “AGACAUGAGGAUCACCCAUGUAGUGGUCCUGGUACGCGAACGUAGGAUAUAUACUGGAUUCCAAUGUAGAAGGACGACACCGCG [Tetege] (Eterna round: R96, puzzle: Exclusion NG 3)”: the “apparent KD of MS2 coat protein” value (input ligand: FMN 200 uM) worked out at 90 nM, the “apparent KD of MS2 coat protein” value under setting [4] is 112 nM and the “apparent KD of MS2 coat protein” value (input ligand: none) stood at 149 nM.

Consider “AGACUUAUAGGAUAUACAUGAGGAUCACCCAUGUCGCCAGGCGGUAGCAGAGUCUUUUGUAGAAGGAUGACAAC [Eternabot (Original) Solution 35] (Eterna round: R97, puzzle: Exclusion 3)”, for which the “apparent KD of MS2 coat protein” value (input ligand: FMN 200 uM) came out at 20.6 nM and the “apparent KD of MS2 coat protein” value (input ligand: none) amounted to 21.2 nM.

As for “AGAGACAAUCUAGGAUAUGUGUAUGAAGAGUGCGCAGAAGGAGACAUGAGGAUCACCCAUGUACAGCGACAGAAGACGACAACC [Matt's Exclusion 2] (Eterna round: R96, puzzle: Exclusion NG 1)”, the “apparent KD of MS2 coat protein” value runs as follows: (input ligand: FMN 200 uM) 14.4 nM; under setting [4], 36.2 nM; (input ligand: none) 17.5 nM.

On to “AGAGAGAUAGGAUAUACGUGGUUUUCUCAGGUCUAAGUUCAACAUGAGGAUCACCCAUGUAGAAGGAUCAAAAG [EX2 C.14] (Eterna round: R97, puzzle: Exclusion 2)”, for which the “apparent KD of MS2 coat protein” value runs as follows: (input ligand: FMN 200 uM) 690 nM; (input ligand: none) 156 nM.

Regarding “AGAGAGUCAGGAUAUCGAAGGGAGAGAAAAGGAGAGAGGUACGAGAAGGGACAUGAGGAUCACCCAUGUAGGUG [JR_Exclusion4)Sub015] (puzzle: Exclusion 4)”, the “apparent KD of MS2 coat protein” value amounted to 279 nM under setting [1], 413 nM under setting [2] and 622 nM under setting [3].

On to “AGAGUGCUGCGAGGAUAUACAUGAGGAUCACCCAUGUAAAAGUGUGAGGCAAAGCCUCACACUAUGUAGAAGGCGCAGUACUCA [Mat - Exclusion NG 2 - Mod of JL - D11] (Eterna round: R96, puzzle: Exclusion NG 2)”, for which the “apparent KD of MS2 coat protein” value amounted to 20.2 nM (input ligand: FMN 200 uM), 12.6 nM under setting [4] and 19.3 nM (input ligand: none).

For the sequence “AGAGUGCUGCGAGGAUAUACAUGAGGAUCACCCAUGUUAUCGUGUGAGGCUUUGCCUCACACGAAGUAGAAGGCGCAGUACUCA [Mat - Exclusion NG 2 - Mod of JL - D100] (Eterna round: R96, puzzle: Exclusion NG 2)”, the “apparent KD of MS2 coat protein” value came out at 13.4 nM (input ligand: FMN 200 uM), 7.69 nM under setting [4] and 14.2 nM (input ligand: none).

For the sequence “AGAGUGCUGCGAGGAUAUACAUGAGGAUCACCCAUGUUUUCCUGUGAGGCAUAGCCUCACAGGAUGUAGAAGGCGCAGUACUCA [Mat - Exclusion NG 2 - Mod of JL - D29] (Eterna round: R96, puzzle: Exclusion NG 2)”, the “apparent KD of MS2 coat protein” value is, setting by setting: (input ligand: FMN 200 uM) 13.5 nM; under setting [4], 9.44 nM; (input ligand: none) 13.7 nM.

As for “AGAGUGUGAGGAUAUAUGGUGAAGAUGAAGGGAUAGAAGGAGUAGAAGGUACAUGAGGAUCACCCAUGUUAGGA [JR_Exclu4_Sub076] (puzzle: Exclusion 4)”, the “apparent KD of MS2 coat protein” value under setting [2] is 23.1 nM.

As for “AGAUAGAGCUGAGGAUAUGAGAAUAGAAAGAAAUCAGAAGGCAGACAUGAGGAUCACCCAUGUGAGUUCUUGAGAUUACAUGGU [Prohibition 43 - Jieux - Exclusion NG 1] (Eterna round: R96, puzzle: Exclusion NG 1)”, the “apparent KD of MS2 coat protein” value was determined as 498 nM (input ligand: FMN 200 uM), 221 nM under setting [4] and 247 nM (input ligand: none).

Turning to “AGAUCACAUGAGGAUCACCCAUGUCAGGAUAUCGACUGAUCAGCUUCGGCUGAUCAGUCGAGAAGGGACAAUUA [E1/1-A2] (Eterna round: R97, puzzle: Exclusion 1)”, the “apparent KD of MS2 coat protein” value by setting is: (input ligand: FMN 200 uM) 511 nM; (input ligand: none) 280 nM.

On to “AGAUCACAUGAGGAUCACCCAUGUGAGGAUAUAGAUUCAAGAGCUUCGGCUCUAAAGUCUAGAAGGCACUAUGA [EX1 #47] (Eterna round: R97, puzzle: Exclusion 1)”, for which the “apparent KD of MS2 coat protein” value stood at 29.1 nM (input ligand: FMN 200 uM) and 25.4 nM (input ligand: none).

Turning to “AGAUCACAUGAGGAUCACCCAUGUGAGGAUAUGAUACUAUGUACUUCGGUACAUAGUAUCAGAAGGCAUAUGAA [Ex1-3: 73] (puzzle: Exclusion 1)”, the “apparent KD of MS2 coat protein” value under setting [2] was 28.9 nM.

As to “AGAUCACAUGAGGAUCACCCAUGUGAGGAUAUGAUACUAUGUACUUCGGUACAUAGUAUCAGAAGGCAUGUGAA [Ex1-3: 74] (puzzle: Exclusion 1)”, the “apparent KD of MS2 coat protein” value under setting [2] was found to be 42.7 nM.

On to “AGAUCACGAGGAUAUCCAGUGUAGUACAUGAGGAUCACCCAUGUUGAUCGUGGAUUCUUGGGAGAAGGCGUGGUUG [Eternabot (L2) Solution 100] (Eterna round: R97, puzzle: Exclusion 5)”, for which the “apparent KD of MS2 coat protein” value by setting is: (input ligand: FMN 200 uM) 237 nM; (input ligand: none) 60.6 nM.

Turning to “AGAUCGUCAGGAUAUACAUGAGGAUCACCCAUGUGUAGUCUAAAUUUGACUACAAUAUGUAGAAGGGACGAUCG [Exclusion 3 (MOD3 of #1 Marzena11)] (Eterna round: R97, puzzle: Exclusion 3)”, the “apparent KD of MS2 coat protein” value runs as follows: (input ligand: FMN 200 uM) 98.9 nM; (input ligand: none) 42.8 nM.

With “AGAUGGCGAGGAUAUACAUGAGGAUCACCCAUGUGAAGAAGAAGAGUGAGGAAGAAAAGUAGAAGGCGCUGUCA [Mat - Exclusion 3 - Mod of Salish D30] (puzzle: Exclusion 3)”, the “apparent KD of MS2 coat protein” value by setting is: under setting [1], 137 nM; under setting [2], 45.8 nM; under setting [3], 64.7 nM.
